This data set concerns the molecule itself. Nature of the data set: AUC.

B1: C-terminal region (amino acids 104–278) of Lnp1 fused to maltose-binding protein (domain or fragment)
chain: FYNNNRLRKLAKLRAIHQKKLEKLKEETHYNATSSIIQRFSSGEDQNDDAMVLLDDELNAKYQELNNLKTELEKFKKESHVKGLKKEDSDAWFDKIISVLAGGNELDSTSSLSPFKKIICPQCHWKSNCYRLASKPIIFICPHCNHKIDEVKEREDAIEAKQPAQPSQSEKEKTK
B1: the “stoichiometry N” value stood at 2.

These data come from paper PMC4571342 (Molecular Biology of the Cell, 2015).
